Data taken from publication PMC3834833 (Nucleic Acids Research, 2013).
Several values for one entry are separate records, joined by “and”; a condition that tells them apart may be missing. Identical values can stand only once.

Legend:
[1] = target: the molecule itself; experiment: glycerol gradient centrifugation; 10 ml linear 20-40% (v/v) glycerol gradient, 10 mM Tris-HCl pH 8.0, 100 mM NaCl, 1 mM EDTA, 2 mM DTT; SW-41 rotor, 38 000 rpm, 24 h, 8°C; fractions by SDS-PAGE and Coomassie; S value and molecular weight by comparison with protein markers; major oligomeric state
[2] = target: translin (wild type) (Homo sapiens, UniProt Q15631 1-228); experiment: SAXS; translin octamer:RNA 1:1.5; Rg 47.2 vs 48.4 A free; SAXS: 10 mM Tris-HCl pH 8.0, 100 mM NaCl, 0.1 mM EDTA, 1 mM DTT, 5% glycerol; complex incubated 20 min at 25 C, measured at 10 C; conditions: protein: recombinant; tags: N-terminal His6 (pQE-9); chain copies: 8; single strand

Row | Binder | stoichiometry N [1] | binding result [2]
1 | translin variant Nt-1 (I6A/F7A) (natural protein, human, UniProt Q15631 1-228, looked up, translin, human; mutant of the pQE-9 translin plasmid made by QuikChange site-directed mutagenesis; Same construct as m1 with the stated substitutions; also called N-terminal 1; source: E. coli, purified) MSVSEAAVELQGFLAAEQDIREEIRKVVQSLEQTAREILTLLQGVHQGAGFQDIPKRCLKAREHFGTVKTHLTSLKTKFPAEQYYRFHEHWRFVLQRLVFLAAFVVYLETETLVTREAVTEILGIEPDREKGFHLDVEDYLSGVLILASELSRLSVNSVTAGDYSRPLHISTFINELDSGFRLLNLKNDSLRKRYDGLKYDVKKVEEVVYDLSIRGFNKETAAACVEK | 4 subunits and 3.9 subunits | –
2 | GUGUGUGUGUGUGUGUGUGUGUGU (ssRNA) [(GU)12] | – | binds
